What was measured:
Test in all cases: cell-based or functional assay
[1] = biological target: HIV-1 Env of pseudovirus 249M B10 (clade C (T/F)) (HIV-1)
[2] = biological target: HIV-1 Env of pseudovirus 3415.v1.c1 (HIV-1)
[3] = biological target: HIV-1 Env of pseudovirus C3347.c11 (HIV-1)
[4] = biological target: HIV-1 Env of pseudovirus R1166.c01 (HIV-1)
[5] = biological target: HIV-1 Env of pseudovirus SC422661.8 (clade B) (HIV-1)
[6] = biological target: HIV-1 Env of pseudovirus ZM197M.PB7 (clade C) (HIV-1)
[7] = biological target: HIV-1 Env of pseudovirus ZM53M.PB12 (clade C) (HIV-1)
[8] = biological target: HIV-1 Env of pseudovirus 0815.v3.c3 (clade ACD) (HIV-1)
[9] = biological target: HIV-1 Env of pseudovirus 231965.c01 (clade D) (HIV-1)
[10] = biological target: HIV-1 Env of pseudovirus 231966.c02 (clade D) (HIV-1)
[11] = biological target: HIV-1 Env of pseudovirus 3016.v5.c45 (clade D) (HIV-1)
[12] = biological target: HIV-1 Env of pseudovirus 3103.v3.c10 (clade ACD) (HIV-1)
[13] = biological target: HIV-1 Env of pseudovirus 3301.v1.c24 (clade AC) (HIV-1)
[14] = biological target: HIV-1 Env of pseudovirus 3817.v2.c59 (clade CD) (HIV-1)
[15] = biological target: HIV-1 Env of pseudovirus 6041.v3.c23 (clade AC) (HIV-1)
[16] = biological target: HIV-1 Env of pseudovirus 6480.v4.c25 (clade CD) (HIV-1)
[17] = biological target: HIV-1 Env of pseudovirus 6540.v4.c1 (clade AC) (HIV-1)
[18] = biological target: HIV-1 Env of pseudovirus 6545.v4.c1 (clade AC) (HIV-1)
[19] = biological target: HIV-1 Env of pseudovirus 6811.v7.c18 (clade CD) (HIV-1)
[20] = biological target: HIV-1 Env of pseudovirus 6952.v1.c20 (clade CD) (HIV-1)
[21] = biological target: HIV-1 Env of pseudovirus 89-F1_2_25 (clade CD) (HIV-1)
[22] = biological target: HIV-1 Env of pseudovirus A07412M1.vrc12 (clade D) (HIV-1)
[23] = biological target: HIV-1 Env of pseudovirus HIV-0013095-2.11 (HIV-1)
[24] = biological target: HIV-1 Env of pseudovirus P1981_C5_3 (clade G) (HIV-1)
[25] = biological target: HIV-1 Env of pseudovirus Q23.17 (HIV-1)
[26] = biological target: HIV-1 Env of pseudovirus Q259.d2.17 (HIV-1)
[27] = biological target: HIV-1 Env of pseudovirus REJO4541.67 (HIV-1)
[28] = biological target: HIV-1 Env of pseudovirus X1632_S2_B10 (clade G) (HIV-1)
[29] = biological target: HIV-1 Env of pseudovirus X2131_C1_B5 (clade G) (HIV-1)

Question: Which IC50 [1] does the source give for N49P7.2 (antibody) here?
Answer: The IC50 was 0.095 µg/mL.

Question: And the IC80 [1]?
Answer: The IC80 was 0.349 µg/mL.

Question: What about the MPI [1] of the same substance?
Answer: Its MPI is 100.

Question: And the IC50 [2]?
Answer: The IC50 was 0.381 µg/mL.

Question: What about the IC80 [2] of the same substance?
Answer: The IC80 was 1.58 µg/mL.

Question: What about the MPI [2] of the same substance?
Answer: Its MPI is 100.

Question: And the IC50 [3]?
Answer: The IC50 was 0.047 µg/mL.

Question: What about the IC80 [3] of the same substance?
Answer: Its IC80 is 0.154 µg/mL.

Question: What about the MPI [3] of the same substance?
Answer: The MPI was 100.

Question: What about the IC50 [4] of the same substance?
Answer: The IC50 was 0.267 µg/mL.

Question: What about the IC80 [4] of the same substance?
Answer: Its IC80 is 0.852 µg/mL.

Question: What about the MPI [4] of the same substance?
Answer: Its MPI is 100.

Question: And the IC50 [5]?
Answer: The IC50 was 0.119 µg/mL.

Question: And the IC80 [5]?
Answer: The IC80 was 0.564 µg/mL.

Question: What about the MPI [5] of the same substance?
Answer: Its MPI is 100.

Question: What about the IC50 [6] of the same substance?
Answer: Its IC50 is 0.223 µg/mL.

Question: And the IC80 [6]?
Answer: The IC80 was 1.37 µg/mL.

Question: What about the MPI [6] of the same substance?
Answer: Its MPI is 100.

Question: What about the IC50 [7] of the same substance?
Answer: The IC50 was 0.477 µg/mL.

Question: And the IC80 [7]?
Answer: Its IC80 is 1.73 µg/mL.

Question: And the MPI [7]?
Answer: The MPI was 100.

Question: Which results are given for N49P7 (antibody)?
Answer: IC50, neutralization titer in TZM.bl cells [8]: 0.016 µg/mL; IC80, neutralization titer in TZM.bl cells [8]: 0.053 µg/mL; MPI, neutralization in TZM.bl cells [8]: 100; IC50, neutralization titer in TZM.bl cells [9]: 0.054 µg/mL; IC80, neutralization titer in TZM.bl cells [9]: 0.193 µg/mL; MPI, neutralization in TZM.bl cells [9]: 100; IC50, neutralization titer in TZM.bl cells [10]: 0.102 µg/mL; IC80, neutralization titer in TZM.bl cells [10]: 0.43 µg/mL; MPI, neutralization in TZM.bl cells [10]: 100; IC50, neutralization titer in TZM.bl cells [11]: 0.221 µg/mL; IC80, neutralization titer in TZM.bl cells [11]: 1.04 µg/mL; MPI, neutralization in TZM.bl cells [11]: 100; IC50, neutralization titer in TZM.bl cells [12]: 0.158 µg/mL; IC80, neutralization titer in TZM.bl cells [12]: 0.509 µg/mL; MPI, neutralization in TZM.bl cells [12]: 100; IC50, neutralization titer in TZM.bl cells [13]: 0.025 µg/mL; IC80, neutralization titer in TZM.bl cells [13]: 0.069 µg/mL; MPI, neutralization in TZM.bl cells [13]: 100; neutralization IC50 [2]: 0.16 µg/mL; neutralization IC80 [2]: 0.55 µg/mL; neutralization MPI [2]: 100; IC50, neutralization titer in TZM.bl cells [14]: 0.716 µg/mL; IC80, neutralization titer in TZM.bl cells [14]: 3.73 µg/mL; MPI, neutralization in TZM.bl cells [14]: 99; IC50, neutralization titer in TZM.bl cells [15]: 0.047 µg/mL; IC80, neutralization titer in TZM.bl cells [15]: 0.222 µg/mL; MPI, neutralization in TZM.bl cells [15]: 100; IC50, neutralization titer in TZM.bl cells [16]: 0.031 µg/mL; IC80, neutralization titer in TZM.bl cells [16]: 0.113 µg/mL; MPI, neutralization in TZM.bl cells [16]: 100; IC50, neutralization titer in TZM.bl cells [17]: 11.7 µg/mL; IC80, neutralization titer in TZM.bl cells [17]: 33.2 µg/mL; MPI, neutralization in TZM.bl cells [17]: 92; IC50, neutralization titer in TZM.bl cells [18]: 2 µg/mL; IC80, neutralization titer in TZM.bl cells [18]: 14.7 µg/mL; MPI, neutralization in TZM.bl cells [18]: 96; IC50, neutralization titer in TZM.bl cells [19]: 0.229 µg/mL; IC80, neutralization titer in TZM.bl cells [19]: 0.992 µg/mL; MPI, neutralization in TZM.bl cells [19]: 100; IC50, neutralization titer in TZM.bl cells [20]: 18.4 µg/mL; IC80, neutralization titer in TZM.bl cells [20]: 38.9 µg/mL; MPI, neutralization in TZM.bl cells [20]: 91; IC50, neutralization titer in TZM.bl cells [21]: 21.6 µg/mL; IC80, neutralization titer in TZM.bl cells [21]: > 50 µg/mL; MPI, neutralization in TZM.bl cells [21]: 80; IC50, neutralization titer in TZM.bl cells [22]: 0.108 µg/mL; IC80, neutralization titer in TZM.bl cells [22]: 0.645 µg/mL; MPI, neutralization in TZM.bl cells [22]: 100; neutralization IC50 [3]: 0.024 µg/mL; neutralization IC80 [3]: 0.067 µg/mL; neutralization MPI [3]: 100; neutralization IC50 [23]: 0.073 µg/mL; neutralization IC80 [23]: 0.253 µg/mL; neutralization MPI [23]: 100; IC50, neutralization titer in TZM.bl cells [24]: 0.113 µg/mL; IC80, neutralization titer in TZM.bl cells [24]: 0.274 µg/mL; MPI, neutralization in TZM.bl cells [24]: 100; neutralization IC50 [25]: 0.052 µg/mL; neutralization IC80 [25]: 0.21 µg/mL; neutralization MPI [25]: 100; neutralization IC50 [26]: 0.332 µg/mL; neutralization IC80 [26]: 2.47 µg/mL; neutralization MPI [26]: 98; neutralization IC50 [4]: 0.092 µg/mL; neutralization IC80 [4]: 0.313 µg/mL; neutralization MPI [4]: 100; neutralization IC50 [27]: 0.015 µg/mL; neutralization IC80 [27]: 0.049 µg/mL; neutralization MPI [27]: 100; IC50, neutralization titer in TZM.bl cells [28]: 12 µg/mL; IC80, neutralization titer in TZM.bl cells [28]: 40.4 µg/mL; MPI, neutralization in TZM.bl cells [28]: 85; IC50, neutralization titer in TZM.bl cells [29]: 0.081 µg/mL; IC80, neutralization titer in TZM.bl cells [29]: 0.273 µg/mL; MPI, neutralization in TZM.bl cells [29]: 100

Question: Which IC50 [1] does the source give for N49P18.1 (antibody) here?
Answer: Its IC50 is 5.71 µg/mL.

Question: And the IC80 [1]?
Answer: The IC80 was 23.1 µg/mL.

Question: What about the MPI [1] of the same substance?
Answer: Its MPI is 94.

Question: And the IC50 [2]?
Answer: The IC50 was > 50 µg/mL.

Question: What about the IC80 [2] of the same substance?
Answer: Its IC80 is > 50 µg/mL.

Question: And the MPI [2]?
Answer: The MPI was 48.

Question: What about the IC50 [3] of the same substance?
Answer: The IC50 was 4.2 µg/mL.

Question: What about the IC80 [3] of the same substance?
Answer: The IC80 was 14.3 µg/mL.

Question: And the MPI [3]?
Answer: The MPI was 99.

Question: And the IC50 [4]?
Answer: Its IC50 is 19.2 µg/mL.

Question: And the IC80 [4]?
Answer: Its IC80 is > 50 µg/mL.

Question: What about the MPI [4] of the same substance?
Answer: Its MPI is 78.

Question: And the IC50 [5]?
Answer: The IC50 was 14.1 µg/mL.

Question: And the IC80 [5]?
Answer: The IC80 was 43.4 µg/mL.

Question: What about the MPI [5] of the same substance?
Answer: The MPI was 84.

Question: What about the IC50 [6] of the same substance?
Answer: Its IC50 is 12.5 µg/mL.

Question: What about the IC80 [6] of the same substance?
Answer: Its IC80 is 49.8 µg/mL.

Question: What about the MPI [6] of the same substance?
Answer: The MPI was 84.

Question: And the IC50 [7]?
Answer: The IC50 was 1.3 µg/mL.

Question: What about the IC80 [7] of the same substance?
Answer: The IC80 was 4.51 µg/mL.

Question: And the MPI [7]?
Answer: The MPI was 99.
